Data on four molecules can be found in US20220002407A1.

For assay [1], the target named is CD19 on CD19-positive human tumor cells (Raji, Raji-Luc, NALM6, Reh) (human) (UniProt P15391). Put plainly: cell-based or functional assay.
Assay [2] has the same target. Briefly: flow cytometry on CD19-positive Raji cells, AF647 goat anti-human IgG detection.
The target of assay [3] is CD3 on human T cells (expanded CIK effector cells) (human) (UniProt P07766). Put plainly: flow cytometry on expanded CD3-positive human T cells (CIK).
The target of assay [4] is CD3 on the membrane of CIK cells (T cells) of a cynomolgus monkey (cynomolgus monkey) (UniProt Q95LI5). Briefly: flow cytometry on cynomolgus monkey CIK (T) cells.
Chain of CD3 on the membrane of CIK cells (T cells) of a cynomolgus monkey (cynomolgus monkey) (Q95LI5 22-198, chain 1 of 3): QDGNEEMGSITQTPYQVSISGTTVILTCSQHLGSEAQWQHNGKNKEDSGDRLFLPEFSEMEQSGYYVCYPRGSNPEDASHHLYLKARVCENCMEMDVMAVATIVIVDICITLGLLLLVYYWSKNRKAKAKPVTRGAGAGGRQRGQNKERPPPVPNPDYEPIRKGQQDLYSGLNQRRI
Chain of CD3 on the membrane of CIK cells (T cells) of a cynomolgus monkey (cynomolgus monkey) (Q95LI8 22-171, chain 2 of 3, further chain): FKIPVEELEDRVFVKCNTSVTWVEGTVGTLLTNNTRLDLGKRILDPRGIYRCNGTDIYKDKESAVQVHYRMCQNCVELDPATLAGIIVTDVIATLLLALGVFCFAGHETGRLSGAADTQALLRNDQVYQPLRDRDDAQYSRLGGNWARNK
Chain of CD3 on the membrane of CIK cells (T cells) of a cynomolgus monkey (cynomolgus monkey) (Q95LI7 23-181, chain 3 of 3, further chain): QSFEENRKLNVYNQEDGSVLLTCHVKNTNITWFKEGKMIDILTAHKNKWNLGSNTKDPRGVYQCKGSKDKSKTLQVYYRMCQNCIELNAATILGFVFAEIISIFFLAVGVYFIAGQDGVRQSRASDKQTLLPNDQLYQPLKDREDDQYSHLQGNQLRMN

Chain of CD19 on CD19-positive human tumor cells (Raji, Raji-Luc, NALM6, Reh) (human) (P15391 20-556): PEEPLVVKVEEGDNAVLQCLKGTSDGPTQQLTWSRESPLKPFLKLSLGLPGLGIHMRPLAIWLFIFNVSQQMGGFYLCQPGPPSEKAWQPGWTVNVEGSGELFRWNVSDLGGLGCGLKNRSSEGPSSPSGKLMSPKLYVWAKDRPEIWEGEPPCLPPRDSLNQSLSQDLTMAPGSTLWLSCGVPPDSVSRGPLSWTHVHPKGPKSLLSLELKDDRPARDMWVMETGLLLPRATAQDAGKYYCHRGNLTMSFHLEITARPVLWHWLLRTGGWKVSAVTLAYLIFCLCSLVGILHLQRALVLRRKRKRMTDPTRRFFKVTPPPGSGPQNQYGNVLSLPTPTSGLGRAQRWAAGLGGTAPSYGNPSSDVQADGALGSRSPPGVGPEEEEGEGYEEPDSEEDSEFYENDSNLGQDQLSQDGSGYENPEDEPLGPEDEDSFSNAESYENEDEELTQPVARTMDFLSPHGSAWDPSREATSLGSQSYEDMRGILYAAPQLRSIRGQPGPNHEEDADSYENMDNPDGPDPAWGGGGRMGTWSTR
Chain of CD3 on human T cells (expanded CIK effector cells) (human) (P07766 23-207, chain 1 of 3): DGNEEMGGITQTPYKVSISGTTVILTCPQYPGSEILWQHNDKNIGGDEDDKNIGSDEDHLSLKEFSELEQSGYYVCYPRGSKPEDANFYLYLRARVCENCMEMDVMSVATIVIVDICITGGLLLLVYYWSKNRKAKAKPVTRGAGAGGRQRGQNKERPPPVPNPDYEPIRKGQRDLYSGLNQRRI
Chain of CD3 on human T cells (expanded CIK effector cells) (human) (P04234 22-171, chain 2 of 3, further chain): as the sequence (Q95LI8 22-171, chain 2 of 3, further chain) above, with V5I, K15N, V20I, T32S, N33D, N34I, A64T, N74S, L83V, R141H counted along it
Chain of CD3 on human T cells (expanded CIK effector cells) (human) (P09693 23-182, chain 3 of 3, further chain): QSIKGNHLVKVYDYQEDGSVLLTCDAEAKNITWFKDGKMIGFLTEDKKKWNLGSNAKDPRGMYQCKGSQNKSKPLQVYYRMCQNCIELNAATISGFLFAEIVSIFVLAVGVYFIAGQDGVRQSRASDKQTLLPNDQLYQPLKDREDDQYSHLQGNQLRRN

B1: bispecific antibody AB23P8 (anti-CD19×CD3) (bispecific antibody)
chain: QVTLRESGPALVKPTQTLTLTCTFSGFSLSTSGMGVGWIRQPPGKALEWLAHIWWDDDKRYNPALKSRLTISKDTSKNQVFLTMTNMDPVDTATYYCARMELWSYYFDYWGQGTTVTVSSGGGGSGGGGSGGGGSENVLTQSPATLSVTPGEKATITCRASQSVSYMHWYQQKPGQAPRLLIYDASNRASGVPSRFSGSGSGTDHTLTISSLEAEDAATYYCFQGSVYPFTFGQGTKLEIKGGGGGGSGGGGSGGGGSSSSSKAPPPSEVQLLESGGGLVQPGGSLKLSCAASGFTFNTYAMNWVRQAPGKGLEWVARIRSKYNNYATYYADSVKDRFTISRDDSKNTAYLQMNNLKTEDTAVYYCVRHGNFGNSYVSWFAYWGQGTLVTVSSGGGGSGGGGSGGGGSELVVTQEPSLTVSPGGTVTLTCRSSTGAVTTSNYANWVQQKPGQAPRGLIGGTNKRAPGTPARFSGSLLGGKAALTLSGVQPEDEAEYYCALWYSNLWVFGGGTKLTVLDKTHTCPPCPAPEAAGGPSVFLFPPKPKDQLMISRTPEVTCVVVDVSHEDPEVKFNWYVDGVEVHNAKTKPREEQYASTYRVVSVLTVLHQDWLNGKEYKCKVSNKALPASIEKTISKAKGQPREPQVYTLPPSRDELTKNQVSLTCLVKGFYPSDIAVEWESNGQPENNYKTTPPVLDSDGSFFLYSKLTVDKSRWQQGNVFSCSVLHEALHNHYTQKSLSLSPG
modifications: Homodimer: two identical copies of this chain, joined by covalent (hinge disulfide) bonds; one copy is given.
As for B1, in assay [1], the EC50 of activation of NFAT-RE luciferase reporter Jurkat T cells in the presence of Raji target cells is 1120 pM, the EC50 to mediate CIK to kill tumor cells (Raji-LUC) turned out to be 0.586 pM and the EC50 to mediate PBMCs to kill tumor cells (Raji-LUC) came to 1.02 pM. In assay [2], this molecule had an EC50 of 1920 pM. For the same molecule, the EC50 in assay [3] was determined as 16700 pM.

B2: bispecific antibody AB23P9 (anti-CD19×CD3) (bispecific antibody)
chain: QVQLQESGPGLVKPTQTLSLTCTVSGGSISTSGMGVGWIRQHPGKGLEWIGHIWWDDDKRYNPALKSRVTISVDTSKNQVFLKLSSVTAADTAVYYCARMELWSYYFDYWGQGTTVTVSSGGGGSGGGGSGGGGSEIVLTQSPATLSLSPGERATITCRASQSVSYMHWYQQKPGQAPRLLIYDASNRASGVPSRFSGSGSGTDFTLTISSLEPEDAATYYCFQGSVYPFTFGQGTKLEIKGGGGGGSGGGGSGGGGSSSSSKAPPPSEVQLLESGGGLVQPGGSLKLSCAASGFTFNTYAMNWVRQAPGKGLEWVARIRSKYNNYATYYADSVKDRFTISRDDSKNTAYLQMNNLKTEDTAVYYCVRHGNFGNSYVSWFAYWGQGTLVTVSSGGGGSGGGGSGGGGSELVVTQEPSLTVSPGGTVTLTCRSSTGAVTTSNYANWVQQKPGQAPRGLIGGTNKRAPGTPARFSGSLLGGKAALTLSGVQPEDEAEYYCALWYSNLWVFGGGTKLTVLDKTHTCPPCPAPEAAGGPSVFLFPPKPKDQLMISRTPEVTCVVVDVSHEDPEVKFNWYVDGVEVHNAKTKPREEQYASTYRVVSVLTVLHQDWLNGKEYKCKVSNKALPASIEKTISKAKGQPREPQVYTLPPSRDELTKNQVSLTCLVKGFYPSDIAVEWESNGQPENNYKTTPPVLDSDGSFFLYSKLTVDKSRWQQGNVFSCSVLHEALHNHYTQKSLSLSPG
modifications: Homodimer: two identical copies of this chain, joined by covalent (hinge disulfide) bonds; one copy is given.
Consider B2, for which, in assay [1], the EC50 of activation of NFAT-RE luciferase reporter Jurkat T cells in the presence of Raji target cells stood at 853 pM, the EC50 to mediate CIK to kill tumor cells (Raji-LUC) was determined as 0.148 pM and the EC50 to mediate PBMCs to kill tumor cells (Raji-LUC) stood at 1.01 pM. Besides, the EC50 in assay [2] is 2600 pM. Also, in assay [3], the EC50 was 49500 pM.

B3: bispecific antibody AB23P10 (anti-CD19×CD3) (bispecific antibody)
chain: QVQLQESGPALVKPTQTLTLTCTFSGFSLSTSGMGVGWIRQPPGKALEWLAHIWWDDDKRYNPALKSRLTISKDTSKNQVFLTMTNMDPVDTATYYCARMELWSYYFDYWGQGTLVTVSSGGGGSGGGGSGGGGSENVLTQSPATLSVTPGEKATLSCSASSSVSYMHWYQQKPGQAPRLLIYDTSKLASGIPARFSGSGSGTDHTLTISSLEAEDVAVYYCFQGSVYPFTFGQGTKLEIKGGGGGGSGGGGSGGGGSSSSSKAPPPSEVQLLESGGGLVQPGGSLKLSCAASGFTFNTYAMNWVRQAPGKGLEWVARIRSKYNNYATYYADSVKDRFTISRDDSKNTAYLQMNNLKTEDTAVYYCVRHGNFGNSYVSWFAYWGQGTLVTVSSGGGGSGGGGSGGGGSELVVTQEPSLTVSPGGTVTLTCRSSTGAVTTSNYANWVQQKPGQAPRGLIGGTNKRAPGTPARFSGSLLGGKAALTLSGVQPEDEAEYYCALWYSNLWVFGGGTKLTVLDKTHTCPPCPAPEAAGGPSVFLFPPKPKDQLMISRTPEVTCVVVDVSHEDPEVKFNWYVDGVEVHNAKTKPREEQYASTYRVVSVLTVLHQDWLNGKEYKCKVSNKALPASIEKTISKAKGQPREPQVYTLPPSRDELTKNQVSLTCLVKGFYPSDIAVEWESNGQPENNYKTTPPVLDSDGSFFLYSKLTVDKSRWQQGNVFSCSVLHEALHNHYTQKSLSLSPG
modifications: Homodimer: two identical copies of this chain, joined by covalent (hinge disulfide) bonds; one copy is given.
Turning to B3, in assay [1], the EC50 of activation of NFAT-RE luciferase reporter Jurkat T cells in the presence of Raji target cells was found to be 709 pM, the EC50 to mediate CIK to kill different tumor cells (NALM6) amounted to 4.4 pM, the EC50 to mediate CIK to kill different tumor cells (Reh) came to 1.64 pM and the EC50 to mediate CIK to kill tumor cells (Raji-LUC) turned out to be 0.128 pM. Also, in assay [1], the EC50 to mediate CIK to kill tumor cells (Raji-LUC, second row without label) was 0.483 pM; the EC50 to mediate PBMCs to kill tumor cells (Raji-LUC) came out at 0.946 pM; the EC50 to mediate PBMCs to kill tumor cells (Raji-LUC, second row without label) was found to be 1.25 pM; the EC50 to mediate PBMCs to kill tumor cells (Raji-LUC, third row without label) turned out to be 4.18 pM. Besides, the EC50 in assay [2] came to 2680 pM. Besides, in assay [4], the EC50 worked out at 5500 pM. Also, in assay [3], the EC50 was found to be 32400 pM.

B4: bispecific antibody AB23P7 (anti-CD19×CD3) (bispecific antibody)
chain: QVQLQESGPGLVKPSQTLSLTCTVSGGSISTSGMGVGWIRQHPGKGLEWIGHIWWDDDKRYNPALKSRVTISVDTSKNQFSLKLSSVTAADTAVYYCARMELWSYYFDYWGQGTLVTVSSGGGGSGGGGSGGGGSEIVLTQSPATLSLSPGERATLSCSASSSVSYMHWYQQKPGQAPRLLIYDTSKLASGIPARFSGSGSGTDFTLTISSLEPEDVAVYYCFQGSVYPFTFGQGTKLEIKGGGGGGSGGGGSGGGGSSSSSKAPPPSEVQLLESGGGLVQPGGSLKLSCAASGFTFNTYAMNWVRQAPGKGLEWVARIRSKYNNYATYYADSVKDRFTISRDDSKNTAYLQMNNLKTEDTAVYYCVRHGNFGNSYVSWFAYWGQGTLVTVSSGGGGSGGGGSGGGGSELVVTQEPSLTVSPGGTVTLTCRSSTGAVTTSNYANWVQQKPGQAPRGLIGGTNKRAPGTPARFSGSLLGGKAALTLSGVQPEDEAEYYCALWYSNLWVFGGGTKLTVLDKTHTCPPCPAPEAAGGPSVFLFPPKPKDQLMISRTPEVTCVVVDVSHEDPEVKFNWYVDGVEVHNAKTKPREEQYASTYRVVSVLTVLHQDWLNGKEYKCKVSNKALPASIEKTISKAKGQPREPQVYTLPPSRDELTKNQVSLTCLVKGFYPSDIAVEWESNGQPENNYKTTPPVLDSDGSFFLYSKLTVDKSRWQQGNVFSCSVLHEALHNHYTQKSLSLSPG
modifications: Homodimer: two identical copies of this chain, joined by covalent (hinge disulfide) bonds; one copy is given.
In the case of B4, in assay [1], the EC50 of activation of NFAT-RE luciferase reporter Jurkat T cells in the presence of Raji target cells is 1080 pM; the EC50 to mediate CIK to kill different tumor cells (Reh) came out at 1.71 pM; the EC50 to mediate CIK to kill tumor cells (Raji-LUC) was 0.699 pM; the EC50 to mediate CIK to kill tumor cells (Raji-LUC, second row without label) is 0.202 pM. In assay [1], the EC50 to mediate PBMCs to kill tumor cells (Raji-LUC) came out at 1.23 pM and the EC50 to mediate PBMCs to kill tumor cells (Raji-LUC, second row without label) amounted to 1.25 pM. Besides, the EC50 in assay [2] was found to be 1390 pM. In addition, the EC50 in assay [4] turned out to be 5500 pM. Besides, in assay [3], the EC50 came out at 15700 pM.
